Laboratory results: patent US7794927B2, “Method for identifying agonists or antagonists of the G-protein coupled receptor mas-like 1” (priority 2002, dated 2010)
Ends that are not written are not given here.

Assays:
[1] = molecular target: T1, G protein-coupled receptor mas-like 1 (Homo sapiens, UniProt Q96LB1); assay: FLIPR assay of stimulation of mas-like 1 transiently expressed in CHO-K1 cells (Fluo4 Ca2+ fluorescence); format: cell-based; settings: for formation of fluorescence in the cells: CHO-K1 cells transiently expressing mas-like 1, zero value about 20 fluorescence intensity units; for agonistic effects on mas-like 1: test system designed in accordance with the detection method
T1 construct: The receptor has therefore been amplified starting from genomic DNA using a polymerase chain reaction (PCR); expressed in transfected cells; host or cells: CHO-K1 (transient, pcDNA3.1)
T1 sequence (Q96LB1 1-330): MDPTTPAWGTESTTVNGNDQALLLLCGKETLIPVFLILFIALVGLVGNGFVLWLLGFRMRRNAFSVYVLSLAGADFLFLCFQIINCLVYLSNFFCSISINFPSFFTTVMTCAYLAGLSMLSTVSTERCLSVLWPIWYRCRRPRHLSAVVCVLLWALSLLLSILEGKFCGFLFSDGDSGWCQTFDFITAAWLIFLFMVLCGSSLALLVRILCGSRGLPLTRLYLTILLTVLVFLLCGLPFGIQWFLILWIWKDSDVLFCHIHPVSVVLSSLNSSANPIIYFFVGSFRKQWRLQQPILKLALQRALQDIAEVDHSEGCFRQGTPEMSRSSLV
Method: CHO-K1 cells were cultivated in basal Iscove's medium supplemented with 10% fetal bovine serum, 10 000 U/ml-10 000 μg/ml penicillin-streptomycin, gentamycin and 2 mM glutamine.
Iscove's medium is commercially available inter alia from Biochrom, Berlin. The composition of Iscove's medium is described in “Iscove, N. N., Melchers, F., Journal of Experimental Medicine 147, 923-933 (1978)”. The CHO-K1 cells were applied in an amount of 2×10^5 cells to a 35 mm culture dish for the transient transfection. The cells were transfected after incubation for about 24 hours or at a confluence of 50-80% with 2 μg of DNA using Lipofectamine reagent which is commercially available inter alia from Invitrogen Life Technologies, Karlsruhe.
About 16 to 18 hours after the transfection, the cells were transferred into 96-well microtiter plates with a density of about 80 000 cells per well. Incubation was then continued for 18 to 24 hours. After this, 95 μl of HBSS (Hank's buffered saline solution) which contained 20 mM HEPES, 2.5 mM probenecid, 4 μM Fluo4 and 1% fetal bovine serum were added, and incubation was carried out in the presence of 5% CO2 at 37° C. for 1 hour. Fluo4 is a dye which fluoresces in the presence of Ca^2+. Fluo4 is sold commercially inter alia by Molecular Probes Europe BV, Leiden. After the incubation, the cells were washed three times with PBS (phosphate buffered saline) which contained 1 mM MgCl2, 1 mM EDTA and 2.5 mM probenecid.
After the last washing step, about 100 μl of the solution were left on the cells in each well. The peptides to be tested were dissolved in water or DMSO (dimethyl sulfoxide) in a concentration of 2 mM. The appropriate dilutions of the final concentration ([…]) were prepared starting from such a stock solution. The fluorescence was measured using a FLIPR (Fluorometric Imaging Plate Reader; Molecular Devices GmbH, Ismaning) for a total of 3 minutes at 1-second intervals for the first minute and at 3-second intervals during the second and third minute. The measurements between 18 seconds and 37 seconds were used to determine the agonistic effect.
Various peptides were tested for their property of stimulating the G protein-coupled receptor mas-like 1. The test was carried out using FLIPR technology. The receptor was for this purpose transiently expressed in CHO-K1 cells.

[2] = molecular target: T1, G protein-coupled receptor mas-like 1; assay: Arachidonic acid liberation in transiently transfected CHO-K1 cells; format: cell-based

concentration dependence of activation of the receptors ([1]; concentration range from 5×10^−6 to 1×10^−5M) | liberation of arachidonic acid [2] | agonistic effects on mas-like 1 [1] | Substance | formation of fluorescence in the cells [1]
 |  |  | H-Phe-Leu-Phe-Gln-Pro-Gln-Arg-Pro-NH2 (H-FLFQPQRP-NH2; listed as Homo sapiens) [neuropeptide FF, natural ligand of mas-like 1] | ca. 2 000 fluorescence intensity units
linear dependence | liberated arachidonic acid |  | PKPQQFFGLM [substance P2-11] | ca. 2 500 fluorescence intensity units
 |  | Agonistic effects were shown | substance P4-11: fragment of substance P, SEQ ID NO:11 (PQQFFGL; listed as Homo sapiens) | 
 |  | Agonistic effects were shown | substance P1-9: N-terminal fragment of substance P, SEQ ID NO:12 (RPKPQQFFG; listed as Homo sapiens) | 
